Source: paper PMC5384801 (mAbs, 2016)

Molecular target: trimeric HIV-1 YU-2 gp140 Env (HIV-1 YU-2 (clade B), UniProt P35961, strain)
Assay: ELISA

B1: 8C chimeric mAb (bovine V regions, human IgG1/lambda constant regions) (antibody, V domains shown)
VH: QVQLRESGPSLVKPSQTLSLTCTVSGFSLSRYDVNWVRQAPGKALEWVGVISGDGITGYNPALKSRLSITKDNSKSQLSLSVSSVTPEDTATYYCESWVCVGGRDDVCHSDWGQGLLVTVSS
VL: QAVLTQPTSVSVALGQTAKITCSGDLVDEQYTQWYQQKPGQGPVMVIYKDSERPSGISDRFSGSNSGKTATLTISGAQTEDEADYYCHSADSSHAVFGSGTTLTV
B1: no binding.
